One molecule from patent US20040265863, “Methods and compositions for synthesis of nucleic acid molecules using multiple recognition sites” (Invitrogen Corporation, published 2004) can be followed below.

This series concerns the target Vaccinia DNA topoisomerase I (Vaccinia virus, UniProt P68698 P68698:1-314). The series can be described thus: covalent topoisomerase-DNA complex isolated on SP Sepharose; cleaved linker band seen after proteinase K. The following applies: tags: Invitrogen; nicked duplex with 3' overhang. As for the experimental part: The topoisomerase-charged promoter linker was purified using an Akta-FPLC and Unicom software ver. 4.00 (Amersham). 360 μl of the linking reaction was loaded onto a 1 ml HiTrap SP Sepharose HP pre-packed column (Amersham) pre-equilibrated in buffer A (50 mM Tris-HCl pH 7.0), washed at 0.5 ml/min with 11 ml buffer A (collected in 1 ml fractions), and eluted with a 5 ml, 0-100% buffer B (50 mM Tris-HCl pH 7.0, 1M NaCl) gradient followed by 3 ml of 100% buffer B. The eluate was collected in 0.2 ml fractions.

B1: T7 TOPO linker (T7topG/T7botG/TOPO-5) (dsDNA)
DNA 1: GACTCGTAATACGACTCACTATAGGGCCCTTATTCCGATAGTG
DNA 2: AGGGCCCTATAGTGAGTCGTATTACGAGTCAAAAAAAAAAAA
DNA 3: CAACACTATCGGAATA
modifications: 5'-phosphate on each oligo
For B1, the binding result was “binds”.
